Source: patent US20230114801A1 (SYSTIMMUNE, published 2023)

Experiments:
Experiment in all cases: antigen binding kinetics; method not given
[1] = target: T1, human CD3 (human, UniProt P07766 23-126; P04234 22-105)
T1 construct: also called His-tagged human CD3; human CD3 (Acro CDD-H52W1)

[2] = target: T2, human 4-1BB (human, UniProt Q07011 24-186, limits assumed)
T2 construct: Soluble antigen in Octet; construct not described

[3] = target: T3, human PD-L1 (human, UniProt Q9NZQ7 19-238)
T3 construct: Soluble antigen in Octet; bought; also called human PD-L1 (Acro PD1-H5229)

[4] = target: T4, CD19 (UniProt P15391 20-291, limits assumed)
T4 sequence (looked up): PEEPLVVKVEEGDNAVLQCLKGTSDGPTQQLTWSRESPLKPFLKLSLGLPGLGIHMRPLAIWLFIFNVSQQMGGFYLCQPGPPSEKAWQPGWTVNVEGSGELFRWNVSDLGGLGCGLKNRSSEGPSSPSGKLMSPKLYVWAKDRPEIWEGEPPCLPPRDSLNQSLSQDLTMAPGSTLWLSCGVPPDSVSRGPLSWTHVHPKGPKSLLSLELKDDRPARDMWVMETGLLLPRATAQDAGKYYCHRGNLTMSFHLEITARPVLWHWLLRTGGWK

Kd [1]: 3.22 nM
Kd [2]: 22.4 nM
Kd [3]: 1.47 nM
Kd [4]: 3.3 nM
B1: SI-76PM1 (other)
chain 1: QIVLSQSPAILSASPGEKVTMTCRASSSVSYIHWFQQKPGSSPKPWIYATSNLASGVPVRFSGSGSGTSYSLTISRVEAEDAATYYCQQWTSNPPTFGGGTKLTVLGGGGSGGGGSGGGGSGGGGSQVQLQQPGAELVKPGASVKMSCKASGYTFTSYNMHWVKQTPGRGLEWIGAIYPGNGDTSYNQKFKGKATLTADKSSSTAYMQLSSLTSEDSAVYYCARSTYYGGDWYFNVWGAGTTVTVSSGGGGSGGGGSEVQLVESGGGLVQPGGSLRLSCAASGFTISTNAMSWVRQAPGKCLEWIGVITGRDITYYASWAKGRFTISRDNSKNTLYLQMNSLRAEDTAVYYCARDGGSSAITSNNIWGQGTLVTVSSASTKGPSVFPLAPSSKSTSGGTAALGCLVKDYFPEPVTVSWNSGALTSGVHTFPAVLQSSGLYSLSSVVTVPSSSLGTQTYICNVNHKPSNTKVDKRVEPKSCDKTHTCPPCPAPEAAGGPSVFLFPPKPKDTLMISRTPEVTCVVVDVSHEDPEVKFNWYVDGVEVHNAKTKPREEQYNSTYRVVSVLTVLHQDWLNGKEYKCAVSNKALPAPIEKTISKAKGQPREPQVYTLPPSRDELTKNQVSLSCAVKGFYPSDIAVEWESNGQPENNYKTTPPVLDSDGSFFLVSKLTVDKSRWQQGNVFSCSVMHEALHNHYTQKSLSLSPGGGGGSGGGGSDVVMTQSPSSVSASVGDRVTITCQASQNIRTYLSWYQQKPGKAPKLLIYAAANLASGVPSRFSGSGSGTDFTLTISDLEPGDAATYYCQSTYLGTDYVGGAFGGGTKLTVLGGGGSGGGGSGGGGSGGGGSEVQLVESGGGLVQPGGSLRLSCTASGFTISSYHMQWVRQAPGKGLEYIGTISSGGNVYYASSARGRFTISRPSSKNTVDLQMNSLRAEDTAVYYCARDSGYSDPMWGQGTLVTVSS
chain 2: ENVLTQSPASLSASPGERVTITCSASSSVSYMHWYQQKPGQAPKLWIYDTSKLASGVPSRFSGSGSGNDHTLTISSMEPEDFATYYCFQGSVYPFTFGQGTKVTVLGGGGSGGGGSGGGGSGGGGSQVTLKESGPGLVQPGQTLSLTCAFSGFSLSTSGMGVGWIRQPPGKGLEWLAHIWWDDDKRYNPALKSRLTISKDTSKNQVYLQMNSLDAEDTAVYYCARMELWSYYFDYWGQGTLVTVSSGGGGSGGGGSDVVMTQSPSTLSASVGDRVTINCQASESISSWLAWYQQKPGKAPKLLIYEASKLASGVPSRFSGSGSGTEFTLTISSLQPDDFATYYCQGYFYFISRTYVNSFGCGTKVEIKRTVAAPSVFIFPPSDEQLKSGTASVVCLLNNFYPREAKVQWKVDNALQSGNSQESVTEQDSKDSTYSLSSTLTLSKADYEKHKVYACEVTHQGLSSPVTKSFNRGECGGDKTHTCPPCPAPEAAGGPSVFLFPPKPKDTLMISRTPEVTCVVVDVSHEDPEVKFNWYVDGVEVHNAKTKPREEQYNSTYRVVSVLTVLHQDWLNGKEYKCAVSNKALPAPIEKTISKAKGQPREPQVYTLPPSRDELTKNQVSLWCLVKGFYPSDIAVEWESNGQPENNYKTTPPVLDSDGSFFLYSKLTVDKSRWQQGNVFSCSVMHEALHNRFTQKSLSLSPGGGGGSGGGGSDIQMTQSPSTLSASVGDRVTITCQASQSISSHLNWYQQKPGKAPKLLIYKASTLASGVPSRFSGSGSGTEFTLTISSLQPDDFATYYCQQGYSWGNVDNVFGGGTKVTVLGGGGSGGGGSGGGGSGGGGSEVQLLESGGGLVQPGGSLSLSCAASGFSFSSGYDMCWVRQAPGKGLEWIACIAAGSAGITYDANWAKGRFTISRDNSKNTLYLQMNSLRAEDTAVYYCARSAFSFDYAMDLWGQGTLVTVSS
notes: penta-miniGNC; as SI-38P11 but with an additional disulphide ('staple') in the D3 αCD3 Fab VH/VL
